Laboratory results taken from patent US20240109974A1 (SHANDONG SIMCERE BIOPHARMACEUTICAL, published 2024).
Where a chain is given by its changes, count along the chain named. Blank lines part the entries; values can stand above or below the binder they belong to.

Key:
[1] = molecular target: T1, human TNFR2 on the surface of CHO-TNFR2 cells (human, UniProt P20333 23-461); test: flow cytometry on CHO-TNFR2 cells; EC50 against 224-WT
T1 construct: whole, on cells
T1 sequence (looked up): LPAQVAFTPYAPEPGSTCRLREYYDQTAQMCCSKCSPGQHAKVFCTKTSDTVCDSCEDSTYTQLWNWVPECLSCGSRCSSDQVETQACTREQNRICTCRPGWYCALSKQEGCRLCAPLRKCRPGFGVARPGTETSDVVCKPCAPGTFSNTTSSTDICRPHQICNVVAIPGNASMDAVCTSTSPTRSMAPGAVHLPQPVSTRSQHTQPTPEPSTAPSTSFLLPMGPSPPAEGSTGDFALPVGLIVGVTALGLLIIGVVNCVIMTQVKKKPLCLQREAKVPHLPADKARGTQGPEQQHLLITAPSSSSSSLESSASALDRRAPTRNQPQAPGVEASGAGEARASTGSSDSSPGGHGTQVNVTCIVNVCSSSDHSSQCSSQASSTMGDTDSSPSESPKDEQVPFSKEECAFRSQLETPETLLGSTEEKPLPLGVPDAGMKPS
Method: The transfected full-length plasmid of human TNFR2 was purchased from Sino Biological (Cat #HG10417-UT, NCBI Ref Seq: NM_001066.2). The experiment was conducted at a cell density within 80%. The cell medium was discarded; the cells were rinsed with PBS, and digested with 1 ml trypsin for 2 minutes; the digestion was stopped with a Ham's F12 complete medium containing 10% FBS, and then a cell suspension was made. The cell suspension was counted, and then an appropriate amount of cell suspension was centrifuged at 350×g; the supernatant was discarded; a corresponding volume of blocking solution (10% FBS+PBS) at a density of 1×10⁷ cells/ml was added to resuspend the cells, and the mixture was incubated at 4° C. for 30 minutes. After the incubation, the mixture was centrifuged at 350×g to remove the supernatant, and the cells were resuspended in a staining buffer (2% FBS+PBS) to a density of 2×10⁶ cells/ml, and spread onto a 96-well plate, with 50 μl of cell suspension added to each well for later use. The antibody was diluted with PBS for 10-fold gradient dilution from the highest concentration of 20 μg/m (twice the concentration); the diluted antibody was added to the well containing 50 μl of cell suspension, and placed on a microplate shaker for shaking at 500 rpm for 1 minute, so that the antibody was fully mixed with the cells; the mixture was incubated at 4° C. for 1 h. After the incubation, the cells were washed twice with the staining buffer, with 100 μl per well, and centrifuged at 350-g for 5 minutes, and the supernatant was discarded. The PE goat anti-Human IgG Fc antibody (ebioscience, Cat #12-4998-82) was diluted 250-fold with the staining buffer, with a volume of 100 μl per well added to the washed cell wells; the mixture was mixed evenly, and stained at 4° C. for 30 minutes. After the staining, similarly, the cells were washed twice with the staining buffer; finally, the cells were resuspended in 200 μl of staining buffer; signals were detected by a flow cytometer (Thermo Attune NxT). The stronger the signal, the stronger the binding ability of an antibody to TNFR2. The binding curve of an antibody was drawn with antibody concentration as the abscissa and corresponding mean fluorescence intensity (MFI) fold as the ordinate, and fitted with four parameters (GraphPad Prism9) to calculate the EC50 value.

[2] = molecular target: T2, Cynomolgus TNFR2-His (Sino 90102-C08H) (cynomolgus monkey, UniProt A0A2K5VET2 132-366); test: ELISA, cynomolgus TNFR2-His coated; EC50 against 224-WT
T2 construct: Bought protein; also called cynomolgus monkey TNFR2; recombinant cynomolgus monkey TNFR2 protein; not shown: His tag
T2 sequence: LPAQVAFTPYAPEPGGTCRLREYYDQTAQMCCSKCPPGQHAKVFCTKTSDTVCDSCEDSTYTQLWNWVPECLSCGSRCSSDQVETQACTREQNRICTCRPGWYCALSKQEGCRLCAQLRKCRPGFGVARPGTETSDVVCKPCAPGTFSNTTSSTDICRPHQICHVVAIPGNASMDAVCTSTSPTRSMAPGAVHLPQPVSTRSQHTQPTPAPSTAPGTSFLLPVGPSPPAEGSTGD
Method: The test humanized antibody against TNFR2 (as described in Example 1, the antibody was comprised of variable regions linked to IgG-Fc; the WT chimeric antibody also adopted the IgG-Fc structure) was subjected to 3.33-fold gradient dilution, loaded with 100 μl/well, and incubated with shaking at room temperature for 1.5 hours. The plate was washed, and then a working solution of murine anti-human IgG Fc-HRP (diluted at 1:10000) was added, loaded with 100 μl/well, and incubated with shaking at room temperature for 1.0 hour. The plate was washed again, and then the substrate TMB of HRP was added to develop colour. A stop solution was added to stop the reaction, and then a microplate reader (MD 13) was used to read the absorbance value. The binding curve of an antibody was drawn with antibody concentration as the abscissa and corresponding OD value as the ordinate, and fitted with four parameters (GraphPad Prism9) to calculate the EC50 value. The smaller the EC50 value, the stronger the binding ability of an antibody to human/cynomolgus monkey TNFR2. The binding effect of a humanized antibody was normalized to its corresponding human-murine chimeric antibody WT (see SEQ ID NOs: 38-43 for the sequence). The higher the percentage value, the better the binding effect of the humanized antibody. The results of binding of an anti-TNFR2 antibody to a human TNFR2 protein are shown in FIG. 1 and Table 4, and the results of binding of an anti-TNFR2 antibody to cynomolgus monkey TNFR2 are shown in FIG. 2 and Table 4.

B1: 224-Hu1 (antibody, V domains shown)
VH: QVQLVQSGAEVKKPGASVKVSCKASGFNNKDIYMHWVRQAPGQGLEWIGRIDPATGNTKHDPKFQDRVTMTSDTSTNTVYMELSSLRSEDTAVYYCARSPYGDFGAMDYWGQGTLVTVSS
VL: DIQMTQSPSSLSASVGDRVTITCTASSSVSSNYLHWYQQKPGKAPKLWIYSTSNLPSGVPSRFSGSGSGTDFTLTISSLQPEDFATYYCHQYHRSPWTFGQGTKVEIK
notes: Humanized form of #224; also called VH8 + VL6
- % Relative activity (WT antibody/test antibody) [1]: 94.5%
- % Relative activity (WT antibody/test antibody) [2]: 105%

B2: 224-Hu7 (antibody, V domains shown)
VH: QVQLVQSGSELKKPGASVKVSCKASGFNNKDIYMHWVRQAPGQGLEWMGRIDPATGNTKHDPKFQDKAVLSSDTSVSTAYLQISSLKAEDTAVYYCARSPYGDFGAMDYWGQGTLVTVSS
VL: B1 VL with W48L
notes: Humanized form of #224; also called VH9 + VL10
- % Relative activity (WT antibody/test antibody) [1]: 140%
- % Relative activity (WT antibody/test antibody) [2]: 116%

B3: 224-Hu5 (antibody, V domains shown)
VH: B2 VH
VL: B1 VL with W48L, F72Y, T73S
notes: Humanized form of #224; also called VH9 + VL9
- % Relative activity (WT antibody/test antibody) [1]: 112%
- % Relative activity (WT antibody/test antibody) [2]: 106%

B5: 224-Hu4 (antibody, V domains shown)
VH: B2 VH
VL: B1 VL
notes: Humanized form of #224; also called VH9 + VL6
- % Relative activity (WT antibody/test antibody) [1]: 131%
- % Relative activity (WT antibody/test antibody) [2]: 108%

B6: 224-Hu3 (antibody, V domains shown)
VH: B2 VH
VL: B1 VL with W48L, P81A, F84A
notes: Humanized form of #224; also called VH9 + VL8
- % Relative activity (WT antibody/test antibody) [1]: 116%
- % Relative activity (WT antibody/test antibody) [2]: 108%

The next lines start with the values.

- % Relative activity (WT antibody/test antibody) [1]: 139%
- % Relative activity (WT antibody/test antibody) [2]: 104%
B4: 224-Hu6 (antibody, V domains shown)
VH: B1 VH
VL: B1 VL with K43S, A44S
notes: Humanized form of #224; also called VH8 + VL7

- % Relative activity (WT antibody/test antibody) [1]: 119%
- % Relative activity (WT antibody/test antibody) [2]: 109%
B7: 224-Hu2 (antibody, V domains shown)
VH: B2 VH
VL: B1 VL with K43S, A44S
notes: Humanized form of #224; also called VH9 + VL7
